Data: paper PMC5708776, “Crystal structure of a tripartite complex between C3dg, C-terminal domains of factor H and OspE of Borrelia burgdorferi” (PLoS ONE, 2017)

Molecular target: T1, C3dg (residues 955 to 1303 of complement C3), C1010A (UniProt P01024 955-1303, C1010A)
T1 construct: complement C3, C3dg fragment, residues 955-1303; C1010A prevents thioester formation; a second change (printed A1153E) was made to reverse a mutation of the original gene, so that the natural residue stands at 1153; The His6 tag was moved from the N-terminus to the C-terminus (TEV-His6) and removed with TEV protease; residues of the TEV site probably remain at the C-terminus; also called C3dg …
T1 sequence (P01024 955-1303 C1010A): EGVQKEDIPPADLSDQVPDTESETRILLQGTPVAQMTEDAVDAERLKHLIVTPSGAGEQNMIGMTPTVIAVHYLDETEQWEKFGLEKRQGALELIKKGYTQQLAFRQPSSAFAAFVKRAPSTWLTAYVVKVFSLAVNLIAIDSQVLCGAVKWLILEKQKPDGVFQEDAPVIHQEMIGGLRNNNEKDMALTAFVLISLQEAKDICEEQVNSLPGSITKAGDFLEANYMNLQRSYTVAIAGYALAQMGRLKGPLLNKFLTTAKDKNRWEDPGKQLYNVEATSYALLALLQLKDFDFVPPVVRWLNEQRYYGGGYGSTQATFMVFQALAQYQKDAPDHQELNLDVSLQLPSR
Assay: crystal structure; three purified proteins mixed at a 1:1:1 molar ratio before crystallisation at 20 °C (PEG 3350, Hepes pH 7.5 or Tris pH 8.5); 3.18 Å; three heterotrimers in the asymmetric unit
Conditions: both partners purified

B1: C-terminal domains 19-20 of human factor H (FH19-20), wild type (domain or fragment)
chain: KDSTGKCGPPPPIDNGDITSFPLSVYAPASSVEYQCQNLYQLEGNKRITCRNGQWSEPPKCLHPCVISREIMENYNIALRWTAKQKLYSRTGESVEFVCKRGYRLSSRSHTLRTTCWDGKLEYPTCAKR
notes: human complement factor H, domains (SCRs) 19-20; also called C-terminus of human factor H
binding result: binds
